Measurements: patent US20240181084

Test system: TALEN-integrase (HIV IN deltaC) fusion pair targeting eGFP, 16 bp spacer
Test: cell_activity
Settings: chloramphenicol-resistant colonies vs untargeted integrase; COS-7 plasmid integration assay

For eGFP TALEN pair target, 16 bp spacer, the activity was 6 fold.
